The text below walks through data of article PMC10408046, “Specific detection of tau seeding activity in Alzheimer’s disease using rationally designed biosensor cells” (Molecular Neurodegeneration, 2023).

Data set [1] concerns the target pseudoacetylated tau (244:378) P301L 3xKQ probe with (EAAAK)3 linker to mTurquoise2 or mNeonGreen (UniProt P10636).
Data set [2] deals with the molecule itself. Briefly: FRET or BRET; FRET between the two differently labelled copies of the probe, read by flow cytometry; HEK293T transiently transfected, exposed 24 h to serial dilutions of human AD brain extract with Lipofectamine 2000 (1% vol/vol) in Opti-MEM. On the technique in general: Bioluminescence resonance energy transfer reports proximity on the nanometre scale.

“seeding-competent tau from human Alzheimer's disease brain (from UniProt P10636 1-758) (natural protein)” had a seeding signal (FRET, flow cytometry) in the novel biosensor HEK293T clone 18: tau-immunodepleted AD brain material against the starting material in data set [1] of 82.3%.

B1: pseudoacetylated tau (244:378) P301L 3xKQ probe with (EAAAK)3 linker to mTurquoise2 or mNeonGreen (domain or fragment)
chain: QTAPVPMPDLKNVKSKIGSTENLKHQPGGGKVQIINKKLDLSNVQSKCGSKDNIKHVLGGGSVQIVYQPVDLSQVTSQCGSLGNIHHKPGGGQVEVKSEKLDFKDRVQSKIGSLDNITHVPGGGNKKIETHKLTFEAAAKEAAAKEAAAK
notes: microtubule associated protein tau, amino acids 244 to 378, P301L and lysines 311, 317 and 321 changed to glutamines to mimic acetylation (3xKQ); Both labelled copies come from one construct with a T2A self-cleaving peptide; a small amount of uncleaved polypeptide was seen by western blot; also called 3xKQ mutant; pseudoacetylated (EAAAK)3 probe; source: HEK293T, transiently transfected, in cells
Take B1: the “fold increase in FRET-positive cells against the probe without 3xKQ” value in data set [2] is ~3 fold.
